# Numbered stars: 1 amine (or outer) side, 2 acyl side, 3 side chain; on linkers, the order of the positions; unused ones are H or OH. Bridge positions count the residues as written; N and C are the ends. Square brackets hold non-standard residues; d marks the D form. Ends that are not written are not given here. * marks the point of attachment. C20 diacid = O=C(O)CCCCCCCCCCCCCCCCCCC(=O)*; γGlu = O=C(O)[C@H](CCC(=O)[*:2])N[*:1]; Hyp = O=C(O)[C@@H]1C[C@@H](O)CN1; Cit = NC(=O)NCCC[C@H](N)C(=O)O
# Molecular target: hAM1R (human, UniProt Q16602)
# Test: cell-based or functional assay
row,Binder,hAM1R EC50 (cAMP) [nM]
1,GCRFGTCTVQRLAHQIYQFTDKDKDNVAPRSKVSPQG[Hyp]-NH2 (disulfide 2-7 (inferred); ends not checked) [SEQ ID NO: 167],2980
2,GCRTGTCTVQRLAHQIYQFTDKDKDNVAPRSNIGPNG[Hyp]-NH2 (disulfide 2-7 (inferred); ends not checked) [SEQ ID NO: 151],44.9
3,GCRTGTCTVQRLAHQIYQFTDKDKDNVAPRSKIGPNG[Hyp]-NH2 (disulfide 2-7 (inferred); ends not checked) [SEQ ID NO: 157],2980
4,GCRFGTCTVQRLAHQIYQFTDKDKDNVAPRSKISPQT[Hyp]-NH2 (disulfide 2-7 (inferred); ends not checked) [SEQ ID NO: 168],> 5000
5,GCRFGTCTVQRLAHQIYQFTDKDKDNVAPRSKISPQGY [SEQ ID NO: 154],2980
6,GCRTGTCTVQRLAHQIYQFTDKDKDNVAPRTKVGPQGY [SEQ ID NO: 156],2980
7,GCRFGTCTVQRLAHQIYQFTDKDKDNVAPRTKVSPQGY [SEQ ID NO: 155],116
8,GCRFGTCTVQRLAHQIYQFTDKDKDNVAPRTKISPQGY [SEQ ID NO: 164],106
9,GCRTGTCTVQRLAHQIYQFTDKDKDNVAPRTNIGPQGY [SEQ ID NO: 160],2980
10,GCRFGTCTVQRLANFLYQFTDKDKDNVAPRTNVGPQGY [SEQ ID NO: 16],125
11,GCRTGTCTVQRLAHQIYQFTDKDKDNVAPRTNVSPNG[Hyp]-NH2 (disulfide 2-7 (inferred); ends not checked) [SEQ ID NO: 163],2980
12,KCNTATCATQRLANFLVHSSNNFGAILPSTKVGPNGY [SEQ ID NO: 149],> 5000
13,"KCNTATCATQRLANFLVHSSNNFGAILSSTNVGSNTY (ligand, disulfide 2-7) [hAMY1-37]",> 5000
14,KCNTATCATQRLANFLVHSSNNFGAILPSTKIGPNGY [SEQ ID NO: 162],> 5000
15,GCRTGTCTVQRLAHQIYQFTDKDKDNVAPRTNISPNG[Hyp]-NH2 (disulfide 2-7 (inferred); ends not checked) [SEQ ID NO: 170],2980
16,GCRTGTCTVQRLAHQIYQFTDKDKDNVAPRSNIGPQG[Hyp]-NH2 (disulfide 2-7 (inferred); ends not checked) [SEQ ID NO: 165],2980

# Second part, the binder after the results:
row,hAM1R EC50 (cAMP) [nM],Binder
1,> 5000,GCRWGTCTVQRLAHQIYQFTDKFKDNVAPRSKISPQT[Hyp]-NH2 (disulfide 2-7 (inferred); ends not checked) [SEQ ID NO: 171]
2,> 5000,GCRWGTCTVQRLAHQIYQFTDKDKDNVAPRSKISPQT[Hyp]-NH2 (disulfide 2-7 (inferred); ends not checked) [SEQ ID NO: 150]
3,213,GCRFGTCTVQRLAHQIYQFTDKDKDNVAPRSKVGPQG[Hyp]-NH2 (disulfide 2-7 (inferred); ends not checked) [SEQ ID NO: 152]
4,2980,GCRTGTCTVQRLAHQIYQFTDKDKDNVAPRTKIGPQG[Hyp]-NH2 (disulfide 2-7 (inferred); ends not checked) [SEQ ID NO: 161]
5,2980,GCRFGTCTVQRLAHQIYQFTDKDKDNVAPRSNISPQG[Hyp]-NH2 (disulfide 2-7 (inferred); ends not checked) [SEQ ID NO: 158]
6,> 5000,{C20 diacid-γGlu}-KCNTATCTVIRLAHQIYQFTDKDKDNVAPPTNVGSNG[Hyp]-NH2 (disulfide 2-7 (inferred); ends not checked) [SEQ ID NO: 159]
7,2980,GCRTGTCTVQRLAHQIYQFTDKDKDNVAPRSNVSPNG[Hyp]-NH2 (disulfide 2-7 (inferred); ends not checked) [SEQ ID NO: 166]
8,295,KCNFATCTVQRLAHQIYQFTDKDKDNVAPRTEVGSNG[Hyp]-NH2 (disulfide 2-7 (inferred); ends not checked) [SEQ ID NO: 17]
9,> 5000,{C20 diacid-γGlu}-KCNTATCTVQ[Cit]LAEQIAQFTDKDKDNVAPPTNVGSNG[Hyp]-NH2 (disulfide 2-7 (inferred); ends not checked) [SEQ ID NO: 153]
10,2980,GCRFGTCTVQRLAHQIYQFTDKDKDNVAPRSKISPQG[Hyp]-NH2 (disulfide 2-7 (inferred); ends not checked) [SEQ ID NO: 169]

# Molecular target: T1, hAMY3R (human, UniProt P30988)
# T1 sequence 1: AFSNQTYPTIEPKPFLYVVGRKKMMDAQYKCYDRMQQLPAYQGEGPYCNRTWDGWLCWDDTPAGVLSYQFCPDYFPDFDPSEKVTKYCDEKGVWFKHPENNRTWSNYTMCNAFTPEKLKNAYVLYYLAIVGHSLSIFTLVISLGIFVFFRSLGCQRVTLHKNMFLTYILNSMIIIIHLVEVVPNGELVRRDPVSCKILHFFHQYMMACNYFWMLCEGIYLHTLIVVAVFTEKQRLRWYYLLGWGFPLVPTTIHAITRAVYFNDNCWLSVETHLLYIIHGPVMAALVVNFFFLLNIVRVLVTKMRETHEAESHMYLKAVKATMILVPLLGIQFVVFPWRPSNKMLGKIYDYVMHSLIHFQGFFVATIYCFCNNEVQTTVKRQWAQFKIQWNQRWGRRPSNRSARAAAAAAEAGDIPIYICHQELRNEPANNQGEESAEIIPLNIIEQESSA
# T1 sequence 2: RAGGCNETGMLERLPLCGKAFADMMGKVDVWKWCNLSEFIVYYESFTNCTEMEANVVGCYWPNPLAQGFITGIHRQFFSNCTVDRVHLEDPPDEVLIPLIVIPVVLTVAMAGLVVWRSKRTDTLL
# Test: cell-based or functional assay
row,Binder,hAMY3R EC50 (cAMP) [nM]
1,GCRFGTCTVQRLAHQIYQFTDKDKDNVAPRSKVSPQG[Hyp]-NH2 (disulfide 2-7 (inferred); ends not checked) [SEQ ID NO: 167],0.056
2,GCRTGTCTVQRLAHQIYQFTDKDKDNVAPRSNIGPNG[Hyp]-NH2 (disulfide 2-7 (inferred); ends not checked) [SEQ ID NO: 151],0.041
3,GCRTGTCTVQRLAHQIYQFTDKDKDNVAPRSKIGPNG[Hyp]-NH2 (disulfide 2-7 (inferred); ends not checked) [SEQ ID NO: 157],0.047
4,GCRFGTCTVQRLAHQIYQFTDKDKDNVAPRSKISPQT[Hyp]-NH2 (disulfide 2-7 (inferred); ends not checked) [SEQ ID NO: 168],0.062
5,GCRFGTCTVQRLAHQIYQFTDKDKDNVAPRSKISPQGY [SEQ ID NO: 154],0.042
6,GCRTGTCTVQRLAHQIYQFTDKDKDNVAPRTKVGPQGY [SEQ ID NO: 156],0.047
7,GCRFGTCTVQRLAHQIYQFTDKDKDNVAPRTKVSPQGY [SEQ ID NO: 155],0.045
8,GCRFGTCTVQRLAHQIYQFTDKDKDNVAPRTKISPQGY [SEQ ID NO: 164],0.054
9,GCRTGTCTVQRLAHQIYQFTDKDKDNVAPRTNIGPQGY [SEQ ID NO: 160],0.05
10,GCRFGTCTVQRLANFLYQFTDKDKDNVAPRTNVGPQGY [SEQ ID NO: 16],0.008
11,GCRTGTCTVQRLAHQIYQFTDKDKDNVAPRTNVSPNG[Hyp]-NH2 (disulfide 2-7 (inferred); ends not checked) [SEQ ID NO: 163],0.053
12,KCNTATCATQRLANFLVHSSNNFGAILPSTKVGPNGY [SEQ ID NO: 149],0.04
13,"KCNTATCATQRLANFLVHSSNNFGAILSSTNVGSNTY (ligand, disulfide 2-7) [hAMY1-37]",0.01
14,KCNTATCATQRLANFLVHSSNNFGAILPSTKIGPNGY [SEQ ID NO: 162],0.051
15,GCRTGTCTVQRLAHQIYQFTDKDKDNVAPRTNISPNG[Hyp]-NH2 (disulfide 2-7 (inferred); ends not checked) [SEQ ID NO: 170],0.064
16,GCRTGTCTVQRLAHQIYQFTDKDKDNVAPRSNIGPQG[Hyp]-NH2 (disulfide 2-7 (inferred); ends not checked) [SEQ ID NO: 165],0.054

# Further lines, results first:
row,hAMY3R EC50 (cAMP) [nM],Binder
1,0.064,GCRWGTCTVQRLAHQIYQFTDKFKDNVAPRSKISPQT[Hyp]-NH2 (disulfide 2-7 (inferred); ends not checked) [SEQ ID NO: 171]
2,0.04,GCRWGTCTVQRLAHQIYQFTDKDKDNVAPRSKISPQT[Hyp]-NH2 (disulfide 2-7 (inferred); ends not checked) [SEQ ID NO: 150]
3,0.041,GCRFGTCTVQRLAHQIYQFTDKDKDNVAPRSKVGPQG[Hyp]-NH2 (disulfide 2-7 (inferred); ends not checked) [SEQ ID NO: 152]
4,0.051,GCRTGTCTVQRLAHQIYQFTDKDKDNVAPRTKIGPQG[Hyp]-NH2 (disulfide 2-7 (inferred); ends not checked) [SEQ ID NO: 161]
5,0.048,GCRFGTCTVQRLAHQIYQFTDKDKDNVAPRSNISPQG[Hyp]-NH2 (disulfide 2-7 (inferred); ends not checked) [SEQ ID NO: 158]
6,0.048,{C20 diacid-γGlu}-KCNTATCTVIRLAHQIYQFTDKDKDNVAPPTNVGSNG[Hyp]-NH2 (disulfide 2-7 (inferred); ends not checked) [SEQ ID NO: 159]
7,0.056,GCRTGTCTVQRLAHQIYQFTDKDKDNVAPRSNVSPNG[Hyp]-NH2 (disulfide 2-7 (inferred); ends not checked) [SEQ ID NO: 166]
8,0.008,KCNFATCTVQRLAHQIYQFTDKDKDNVAPRTEVGSNG[Hyp]-NH2 (disulfide 2-7 (inferred); ends not checked) [SEQ ID NO: 17]
9,0.041,{C20 diacid-γGlu}-KCNTATCTVQ[Cit]LAEQIAQFTDKDKDNVAPPTNVGSNG[Hyp]-NH2 (disulfide 2-7 (inferred); ends not checked) [SEQ ID NO: 153]
10,0.063,GCRFGTCTVQRLAHQIYQFTDKDKDNVAPRSKISPQG[Hyp]-NH2 (disulfide 2-7 (inferred); ends not checked) [SEQ ID NO: 169]

# Reference: patent publication US12139520B2 (priority 2020, dated 2024)
